The assay deals with T1, human TIM-3 (T Cell Immunoglobulin and Mucin Domain-3) (human, UniProt Q8TDQ0 22-301).
T1 construct: The occupancy sentence names neither the receptor nor its form; also called HAVCR2
T1 sequence: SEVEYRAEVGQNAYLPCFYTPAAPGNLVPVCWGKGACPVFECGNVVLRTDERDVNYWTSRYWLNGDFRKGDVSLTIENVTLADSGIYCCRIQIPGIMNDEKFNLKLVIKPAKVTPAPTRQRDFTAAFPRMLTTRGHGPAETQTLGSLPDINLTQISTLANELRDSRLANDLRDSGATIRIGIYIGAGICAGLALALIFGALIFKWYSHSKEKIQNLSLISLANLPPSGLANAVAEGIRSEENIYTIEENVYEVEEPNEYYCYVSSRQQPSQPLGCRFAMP
Description: receptor occupancy in subjects of a corresponding Phase 1 study (method not described).

B1: cobolimab (antibody, human IgG4 S228P, kappa, V domains shown)
VH: EVQLLESGGGLVQPGGSLRLSCAAASGFTFSSYDMSWVRQAPGKGLDWVSTISGGGTYTYYQDSVKGRFTISRDNSKNTLYLQMNSLRAEDTAVYYCASMDYWGQGTTVTVSS
VL: DIQMTQSPSSLSASVGDRVTITCRASQSIRRYLNWYHQKPGKAPKLLIYGASTLQSGVPSRFSGSGSGTDFTLTISSLQPEDFAVYYCQQSHSAPLTFGGGTKVEIKR
notes: also called Anti-TIM3
In the case of B1, the binding result is “binds”.
